5 molecules from paper PMC11464722 (Nature Communications, 2024) can be followed below.

Experiment [1] has as its target SNAP-tagged murine µOR on HEK293 cells (murine, UniProt P42866 1-398). In words: AlphaScreen or HTRF.
Experiment [2] has as its target SNAP-tagged murine µOR on HEK293 cells (murine, UniProt P42866, SNAP-Lumi4-Tb (terbium cryptate) on the SNAP tag). In words: AlphaScreen or HTRF.
Experiment [3] deals with murine κ-opioid receptor, ssf-tagged, on HEK293 cells (Mus musculus (Mouse)., UniProt P33534). The experiment in a line: flow cytometry on cells. For orientation: Flow cytometry measures light scatter and fluorescence of single cells or particles in a stream.
Experiment [4] has as its target murine nociceptin opioid receptor, ssf-tagged, on HEK293 cells (Mus musculus (Mouse)., UniProt P35377). In words: flow cytometry on cells.
For experiment [5], the target named is human μ-opioid receptor, ssf-tagged, on HEK293 cells (Homo sapiens (Human)., UniProt P35372). The experiment in a line: immunostaining of cells or tissue.
human μ-opioid receptor, ssf-tagged, on HEK293 cells, sequence (P35372 whole entry): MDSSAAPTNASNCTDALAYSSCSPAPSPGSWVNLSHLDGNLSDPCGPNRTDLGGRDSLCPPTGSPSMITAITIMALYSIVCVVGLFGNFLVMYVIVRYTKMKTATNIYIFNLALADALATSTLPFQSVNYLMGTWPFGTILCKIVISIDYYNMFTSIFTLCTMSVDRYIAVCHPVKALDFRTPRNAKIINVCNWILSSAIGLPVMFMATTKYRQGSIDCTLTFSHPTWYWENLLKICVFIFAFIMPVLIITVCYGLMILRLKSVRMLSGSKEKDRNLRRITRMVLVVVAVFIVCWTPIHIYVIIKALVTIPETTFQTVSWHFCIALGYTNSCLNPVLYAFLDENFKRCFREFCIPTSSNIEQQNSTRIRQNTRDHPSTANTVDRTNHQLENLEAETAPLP

SNAP-tagged murine µOR on HEK293 cells (murine, UniProt P42866 1-398), sequence (P42866 whole entry): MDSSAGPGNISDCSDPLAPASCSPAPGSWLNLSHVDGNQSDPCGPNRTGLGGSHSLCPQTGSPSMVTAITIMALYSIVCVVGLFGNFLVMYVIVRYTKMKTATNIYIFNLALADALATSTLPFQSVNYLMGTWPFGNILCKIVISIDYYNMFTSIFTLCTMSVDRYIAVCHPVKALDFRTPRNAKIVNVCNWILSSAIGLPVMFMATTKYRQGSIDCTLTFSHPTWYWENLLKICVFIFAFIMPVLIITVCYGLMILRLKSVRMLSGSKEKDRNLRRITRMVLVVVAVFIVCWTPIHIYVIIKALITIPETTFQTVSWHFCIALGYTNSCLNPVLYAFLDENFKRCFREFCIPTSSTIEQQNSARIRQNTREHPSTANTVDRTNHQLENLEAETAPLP
SNAP-tagged murine µOR on HEK293 cells (murine, UniProt P42866, SNAP-Lumi4-Tb (terbium cryptate) on the SNAP tag), sequence (P42866 whole entry): as above
murine nociceptin opioid receptor, ssf-tagged, on HEK293 cells, sequence (P35377 whole entry): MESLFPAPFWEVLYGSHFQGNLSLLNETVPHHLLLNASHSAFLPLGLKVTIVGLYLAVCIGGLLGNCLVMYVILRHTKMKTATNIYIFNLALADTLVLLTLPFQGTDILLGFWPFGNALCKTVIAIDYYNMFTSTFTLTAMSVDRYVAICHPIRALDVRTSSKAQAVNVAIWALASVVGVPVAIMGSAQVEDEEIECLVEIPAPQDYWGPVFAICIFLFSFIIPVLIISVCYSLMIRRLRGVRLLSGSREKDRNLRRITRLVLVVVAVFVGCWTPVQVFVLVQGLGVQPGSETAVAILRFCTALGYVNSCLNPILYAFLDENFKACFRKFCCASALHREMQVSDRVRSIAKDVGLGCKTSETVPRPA
murine κ-opioid receptor, ssf-tagged, on HEK293 cells, sequence (P33534 whole entry): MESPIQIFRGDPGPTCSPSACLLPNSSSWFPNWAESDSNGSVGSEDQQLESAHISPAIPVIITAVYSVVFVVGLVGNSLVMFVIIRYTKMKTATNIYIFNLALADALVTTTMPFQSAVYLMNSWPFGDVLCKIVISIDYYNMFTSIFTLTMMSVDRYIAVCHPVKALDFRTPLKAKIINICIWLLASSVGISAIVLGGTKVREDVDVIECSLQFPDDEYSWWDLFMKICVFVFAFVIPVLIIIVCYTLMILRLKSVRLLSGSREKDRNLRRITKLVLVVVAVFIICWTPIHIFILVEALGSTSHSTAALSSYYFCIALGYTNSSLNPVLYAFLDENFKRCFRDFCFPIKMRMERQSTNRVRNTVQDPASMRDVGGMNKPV

In general, Ki refers to the equilibrium dissociation constant of an inhibitor or competing ligand from its target. A high value points to a looser hold on the target. In experiment [1], Ac-YYSGSYFYKSEY-NH2 [linear peptide 5 (NbE CDR3, 12 residues)] returned a Ki of 1300 nM. This counts as single-digit micromolar.

B1: NbE (NbE-6xHis, unlabeled) (VHH)
VHH: QVQLVESGGGLVQAGGSLRLSCAASGSISSISTMGWYRQAPGNERELVAAITSGGSTNYADSVKGRFTISRDNAKNTVYLQMNSLKPEDTAVYYCNFKYYSGSYFYKSEYDYWGQGTQVTVSS
B1 showed a Ki in experiment [2] of 18 nM.

B2: NbE conjugated with Alexa Fluor 488 (VHH)
VHH: B1 VHH
Consider B2, for which the binding result in experiment [3] and in experiment [4] was “no binding (tested: 10 μM)” throughout.

B3: HA-tagged NbE (VHH)
VHH: B1 VHH
For the molecule B3, the binding result in experiment [5] is “binds”. KYYSGSYFYKSEYD [linear peptide 6 (NbE CDR3 residues 100-113, 14 residues)]: the Ki in experiment [1] was 3100 nM.
